Results as given in patent US9969780.

Key:
[1] = target: Tat (1-20) peptide (N-terminal domain) (HIV-1); assay: ELISA; plate coated with Tat peptide, antibody used for detection
[2] = target: Tat (21-40) peptide (cysteine-rich region-transactivation domain) (HIV-1); assay: as above
[3] = target: Tat (21-58) peptide (cysteine, core, and basic regions) (HIV-1); assay: as above
[4] = target: Tat (36-50) peptide (core region) (HIV-1); assay: as above
[5] = target: Tat (65-80) peptide (RGD sequence) (HIV-1); assay: as above
[6] = target: Tat (83-102) peptide (C-terminal domain) (HIV-1); assay: as above
[7] = target: Tat (73-86) peptide (HIV-1); assay: as above
[8] = target: Tat (56-70) peptide (glutamine-rich region) (HIV-1); assay: as above
[9] = target: Tat (46-60) peptide (basic region-nuclear localisation signal) (HIV-1); assay: as above
[10] = target: oxidised Tat (HIV-1) (UniProt Q73370); assay: ELISA; wells coated with oxidised Tat, antibody used for detection
[11] = target: HIV-1 Tat protein (recombinant, native, biologically active) (HIV-1) (UniProt Q73370); assay: ELISA; wells coated with native Tat, antibody used for detection
[12] = target: HIV-1 Tat protein (recombinant, native, biologically active) (HIV-1) (UniProt Q73370); assay: ELISA; plate coated with Tat, antibody used for detection
[13] = target: Tat-cys22 (transactivation mutant, cysteine 22 substituted by glycine) (HIV-1); assay: ELISA; wells coated with Tat-cys22, antibody used for detection
[14] = target: bovine serum albumin (bovine) (UniProt P02769); assay: ELISA; uncoated (BSA-blocked) well incubated with Tat, detected with anti-Tat
bovine serum albumin (bovine), sequence (P02769 25-607 limits assumed): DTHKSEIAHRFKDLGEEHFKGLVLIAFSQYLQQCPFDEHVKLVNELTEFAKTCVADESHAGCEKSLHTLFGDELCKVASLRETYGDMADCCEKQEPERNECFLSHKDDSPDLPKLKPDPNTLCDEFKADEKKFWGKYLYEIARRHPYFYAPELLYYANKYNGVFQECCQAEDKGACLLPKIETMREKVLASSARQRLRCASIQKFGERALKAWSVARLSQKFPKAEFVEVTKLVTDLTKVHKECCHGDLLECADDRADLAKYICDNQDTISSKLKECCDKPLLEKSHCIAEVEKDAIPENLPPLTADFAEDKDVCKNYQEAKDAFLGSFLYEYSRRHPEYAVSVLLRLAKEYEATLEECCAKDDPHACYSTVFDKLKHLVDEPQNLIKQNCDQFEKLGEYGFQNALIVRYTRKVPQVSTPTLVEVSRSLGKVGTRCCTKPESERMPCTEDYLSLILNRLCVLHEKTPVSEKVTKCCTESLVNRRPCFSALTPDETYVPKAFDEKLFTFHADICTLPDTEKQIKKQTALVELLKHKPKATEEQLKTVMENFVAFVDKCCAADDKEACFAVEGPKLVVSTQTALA

| Substance | ELISA signal [1] | ELISA signal [2] | ELISA signal [3] | ELISA signal [4] | ELISA signal [5] | ELISA signal [6] | ELISA signal [7] | ELISA signal [8] | ELISA signal [9] | ELISA signal [10] | ELISA signal [11] | ELISA signal [12] | ELISA signal [13] | ELISA OD [14] [OD] |
| --- | --- | --- | --- | --- | --- | --- | --- | --- | --- | --- | --- | --- | --- | --- |
| CTR isot. (isotype control antibody) | 0.006 | 0.082 | 0.108 | 0 | 0 | 0 | 0.019 | 0 | 0.063 | 0.016 | 0.051 | 0.081 | 0.026 | – |
| monoclonal anti-CCR5 antibody (Pharmingen), directed against the CCR5 second extracellular loop | 0 | 0 | 3 | 0 | 0 | 0 | 0 | 0.147 | 0.466 | 0.128 | 1.24 | 1.45 | 0.75 | – |
| HIV-1 Tat protein (recombinant, native, biologically active) (from UniProt Q73370 1-100) | – | – | – | – | – | – | – | – | – | – | – | – | – | 0.431 |
